# Source: the supplement of paper PMC10567573
# B1: LRRC45 (parent)
# chain: DLSAANEKNLLLQNQVDELERKFR
# Variants of: B1
# Test: protein stability index of a GFP-peptide fusion (GPS, HEK-293T) (PSI 1-6); higher = more stable
# Conditions: c terminus: a fixed tail appended
# 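Note: lentivirally expressed fusions sorted by FACS into six bins by GFP to DsRed ratio, PSI derived from sequencing read proportions per bin multiplied by bin number.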
row,Variant,protein stability index
1,DLSAANEKNLLLQNMVDELERKFR [Q15M],3.77
2,DLSAANEKNLLLQNYVDELERKFR [Q15Y],2.76
3,DLSAANEKNLLLQNHVDELERKFR [Q15H],4.04
4,DLSAANEKNLLLQNDVDELERKFR [Q15D],4.4
5,DLSAANEKNLLLQNQVDEHERKFR [L19H],4.12
6,DLSAANEKNLLLQNQVDEFERKFR [L19F],3.76
7,DLSAANEKNLLLQNQVDEWERKFR [L19W],3.75
8,DLSAANEKNLLLQNQVDEVERKFR [L19V],4.31
9,DLSAANEKNLLLQNQVDEYERKFR [L19Y],3.48
10,DLSAANEKNLLLQNQVDEQERKFR [L19Q],3.99
11,DLSAANEKNLLLQNQVDERERKFR [L19R],3.68
12,DLSAANEKNLLLQNQVDESERKFR [L19S],4.34
13,DLSAAFEKNLLLQNQVDELERKFR [N6F],3.62
14,DLSAALEKNLLLQNQVDELERKFR [N6L],3.8
15,DLSAASEKNLLLQNQVDELERKFR [N6S],4.92
16,DLSAAYEKNLLLQNQVDELERKFR [N6Y],3.77
17,DLSAACEKNLLLQNQVDELERKFR [N6C],4.59
18,DLSAAQEKNLLLQNQVDELERKFR [N6Q],4.73
19,DLSAANEKNLLLQNQVDELERRFR [K22R],3.22
20,DLSAANEKNLLLQNQVDELERIFR [K22I],3.01
21,DLSAANEKNLLLQNQVDELERHFR [K22H],3.86
22,DLSAANEKNLLLQNQVDELERMFR [K22M],3.34
23,DLSAANEKNLLLQNQVDELERYFR [K22Y],3.34
24,DLSAANEKNLLLQNQVDELERQFR [K22Q],4.06

row,Variant,protein stability index
1,DLSAANEKNLLLQNQVDELERPFR [K22P],3.88
2,DLSAANEKNLLLQNQVDELEHKFR [R21H],4.22
3,DLSAANEKNLLLQNQVDELELKFR [R21L],3.74
4,DLSAANEKNLLLQNQVDELEKKFR [R21K],3.93
5,DLSAANEKNLLLQNQVDELECKFR [R21C],3.74
6,DLSAANEKNLLLQNQVDELEQKFR [R21Q],4.09
7,DLSAANEKNLLLQNQVDELEWKFR [R21W],3.63
8,DLSAANEKNLLLQNQVDELEVKFR [R21V],4.05
9,DLSAANEKNLLLQNQVDELEEKFR [R21E],4.56
10,DLSAANEKNLLLQNQVMELERKFR [D17M],3.58
11,DLSAANEKNLLLQNQVLELERKFR [D17L],3.24
12,DLSAANEKNLLLQNQVWELERKFR [D17W],2.9
13,DLSAANEKNLLLQNQVYELERKFR [D17Y],3.23
14,DLSAANEKNLLLQNQVQELERKFR [D17Q],3.66
15,DLSAANEKNLLRQNQVDELERKFR [L12R],3.98
16,DLSAANEKNLLTQNQVDELERKFR [L12T],3.64
17,DLSAANEKNLLSQNQVDELERKFR [L12S],4.03
18,DLSAANEKNLLYQNQVDELERKFR [L12Y],4.08
19,DLSAANEKNLLMQNQVDELERKFR [L12M],3.87
20,DLSAANEKNLLPQNQVDELERKFR [L12P],4.18
21,DLSAANEKNLLEQNQVDELERKFR [L12E],4.61
22,DLSAANEKNLLWQNQVDELERKFR [L12W],3.48
23,DLSAANEKNLLNQNQVDELERKFR [L12N],4.01
24,DLSAANEKNLLHQNQVDELERKFR [L12H],4

row,Variant,protein stability index
1,DLSAANEKNLLLQNQVDELHRKFR [E20H],3.35
2,DLSAANEKNLLLQNQVDELQRKFR [E20Q],3.47
3,DLSAANEKNLLLQNQVDELFRKFR [E20F],2.54
4,DLSAANEKNLLLQNQVDELARKFR [E20A],3.96
5,DLSAANEKNLLLQNQVDELMRKFR [E20M],2.81
6,DLSAANEKNLLLQNQVDELKRKFR [E20K],3.2
7,DLSAANEKNLLLQNQVDELPRKFR [E20P],3.12
8,DLSAANEKNLLLQNQVDELVRKFR [E20V],3.75
9,DLSAANEKNLLLQNQVDELIRKFR [E20I],3.47
10,DLSAANEKNLLLQNQVDELSRKFR [E20S],3.8
11,DLSAFNEKNLLLQNQVDELERKFR [A5F],3.79
12,DLSATNEKNLLLQNQVDELERKFR [A5T],3.91
13,DLSAMNEKNLLLQNQVDELERKFR [A5M],3.62
14,DLSAQNEKNLLLQNQVDELERKFR [A5Q],3.9
15,DLSANNEKNLLLQNQVDELERKFR [A5N],3.18
16,DLSACNEKNLLLQNQVDELERKFR [A5C],4.42
17,DLSAGNEKNLLLQNQVDELERKFR [A5G],4.22
18,DLSAANEKNLLLQNQVDELERKFK [R24K],4.66
19,DLSAANEKNLLLQNQVDELERKFW [R24W],3.52
20,DLSAANEKNLLLQNQVDELERKFN [R24N],4.47
21,DLSAANEKNLLLQNQVDELERKFH [R24H],4.31
22,DLSAANEKNLLLQNQVDELERKFG [R24G],4.48
23,DLSAANEKNLLLQNQVDELERKFV [R24V],3.71
24,DLSAANEKNLLLQNQVDELERKFY [R24Y],4.17

row,Variant,protein stability index
1,DLSAANEKNLLLQNQVDELERKFS [R24S],4.25
2,DLSAANEKNLLLQNQVDELERKFD [R24D],4.86
3,DLSAANEKNLLLSNQVDELERKFR [Q13S],3.98
4,DLSAANEKNLLLTNQVDELERKFR [Q13T],4.11
5,DLSAANEKNLLLPNQVDELERKFR [Q13P],3.8
6,DLSAANEKNLLLCNQVDELERKFR [Q13C],4.03
7,DLSAANEKNLLLFNQVDELERKFR [Q13F],3.44
8,DLSAANEKNLLLGNQVDELERKFR [Q13G],4.11
9,DFSAANEKNLLLQNQVDELERKFR [L2F],4.54
10,DQSAANEKNLLLQNQVDELERKFR [L2Q],4.69
11,DASAANEKNLLLQNQVDELERKFR [L2A],5.21
12,DGSAANEKNLLLQNQVDELERKFR [L2G],4.78
13,DHSAANEKNLLLQNQVDELERKFR [L2H],4.61
14,DNSAANEKNLLLQNQVDELERKFR [L2N],4.64
15,DPSAANEKNLLLQNQVDELERKFR [L2P],4.67
16,DESAANEKNLLLQNQVDELERKFR [L2E],5.13
17,DLSAANEKDLLLQNQVDELERKFR [N9D],4.91
18,DLSAANEKFLLLQNQVDELERKFR [N9F],3.98
19,DLSAANEKSLLLQNQVDELERKFR [N9S],4.63
20,DLSAANEKKLLLQNQVDELERKFR [N9K],4.11
21,DLSAANEKELLLQNQVDELERKFR [N9E],4.89
22,DLSAANEKPLLLQNQVDELERKFR [N9P],4.3
